Among the data in patent publication US20090035321A1, “Intercellular adhesion molecules and their binding ligands” (Boehringer Ingelheim Pharmaceuticals, Inc., published 2009) are LFA-1 Binding % (% of wild type) and % of Cells Expressing ICAM-1 that Bind LFA-1 values, retold here.

The target of one assay is ICAM-1 N240DS/KNA (human, UniProt P05362). Nature of the assay: COS cells on LFA-1 coated plastic.
In another assay the target is ICAM-1 R13/K (human, UniProt P05362). Description: COS cells on LFA-1 coated plastic.
The target of another assay is ICAM-1 T20CS/ACT (human, UniProt P05362). Nature of the assay: COS cells on LFA-1 coated plastic.
For another assay, the target named is ICAM-1 D26QPK/ALPE (human, UniProt P05362). Nature of the assay: COS cells on LFA-1 coated plastic.
Another assay deals with ICAM-1 D60/N (human, UniProt P05362). Description: COS cells on LFA-1 coated plastic.
The next assay concerns the target ICAM-1 N68/K (human, UniProt P05362). Description: COS cells on LFA-1 coated plastic.
The target in the next assay is ICAM-1 D71/E (human, UniProt P05362). Nature of the assay: COS cells on LFA-1 coated plastic.
Another assay has as its target ICAM-1 H152HGA/EEGS (human, UniProt P05362). Description: COS cells on LFA-1 coated plastic.
The target of another assay is ICAM-1 S177/G (human, UniProt P05362). Nature of the assay: COS cells on LFA-1 coated plastic.
For another assay, the target named is ICAM-1 D229QR/HLE (human, UniProt P05362). Nature of the assay: COS cells on LFA-1 coated plastic.
For the next assay, the target named is ICAM-1 Y476/TAG (human) (UniProt P05362). Description: COS cell adhesion to purified LFA-1, no antibody.
Assay [1] deals with Intercellular Adhesion Molecule-1 (ICAM-1), wild type, on the cell surface (human) (UniProt P05362). Nature of the assay: COS cell adhesion to purified LFA-1, no antibody.

Regarding “purified LFA-1, bound to plastic (from UniProt P20701) (receptor)”, the LFA-1 Binding % (% of wild type) with ICAM-1 N240DS/KNA came to 147; with ICAM-1 R13/K, 98; with ICAM-1 T20CS/ACT it was 91; with ICAM-1 D26QPK/ALPE, 30; in the assay with ICAM-1 D60/N it was 92; with ICAM-1 N68/K, 101. Besides, the LFA-1 Binding % (% of wild type) with ICAM-1 D71/E came out at 118; with ICAM-1 H152HGA/EEGS, 85; in the assay with ICAM-1 S177/G it was 59; in the assay with ICAM-1 D229QR/HLE it was 90. Besides, the % of Cells Expressing ICAM-1 that Bind LFA-1 (with ICAM-1 Y476/TAG (human); in [1]) was 20% throughout.
